Test results: patent US20170166631A1

Experiments:
[1] = biological target: T1, HD21 (huntingtin exon 1 protein with 21 polyQ repeats after cleavage of the GST tag; aggregation reaction) (human), P42858; assay: ELISA; settings: chains VH:VL; remark: other sources report otherwise
T1 chain: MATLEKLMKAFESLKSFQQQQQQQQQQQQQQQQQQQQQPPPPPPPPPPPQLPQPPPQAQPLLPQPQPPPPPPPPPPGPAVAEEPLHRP

[2] = biological target: all four species (aggregated HD49, aggregated HD21, soluble GST-HD49 and GST-HD21); assay: direct ELISA, antigen coated at 5 ug/ml

B1: NI-302.4A6 (protein)
chain 1: EVQLVESGGGLVQPGGSLRLSCAASGFTFSAYAMSWVRQAPGKGLEWVSTISGSGGSTYYADSVKGRFSISRDNSKNTLYLQMNSLRAEDTAVYFCAKVTTELYGANSYYYYMDVWGKGTTVTVSS
chain 2: EIVLTQSPGTLSLSPGERATLSCRASQSVVSRYLAWYQQKPGQAPRLLIYGASSRATGIPDRFSGSGSGTDFTLTISRLEPEDFAMYYCQLYGNSQTFGQGTKVEIK
[1]
  EC50: 3 nM

B2: NI-302.12H2 (protein)
chain 1: EVQLVQSGGGLVQPGGSLRLSCEASGFTFSNYAMGWVRQAPGKGLEWVSVISGTGGSTYYADSVKGRFTISRDNSMNTLYLQMNSPRADDTAVYYCAKDLRKISGPLYYYGMDVWGQGTTVTVSS
chain 2: EIVLTQSPGTLSLSPGERATLSCRASQSVSSGYLAWYQQKPGQAPRLLIYGASTRATGIPDRFSGSGSGTDFTLTISRLEPEDFAVYYCQHYGASSYTFGQGTKLEIK
[1]
  EC50: 0.05 nM

B3: NI-302.15F9 (antibody, human IgG1, V domains shown)
VH: EVQLVESGGGLVTPGGSLRLSCEASGFLFKNSSMNWVRQTPGKGLEWVSSIDTSATNYKYYADSVKGRFTISRDDATNSLYLQMNSLRADDTATYYCARGYYTPRDFDYWGQGTLVTVSS
VL: DVVMTQSPQTLSVSLGQAASISCRSSQSLLYRDNNTYLNWFHQRPGQSPRRLIYRASDRDSGVPDRFSGGGSGTDFTLKISGVEAEDVGTYYCMQGTHWPRTFGQGTKVEIK
[2]
  EC50: 5 to 35 nM

B4: NI-302.8M1 (protein)
chain 1: EVQLVQSGAEVKKPGASVKVSCKASGYTFTIYYMHWVRQAPGQGLEWMGGISPSGAHTMYAQNFQGRVTVTRDTSTSTVYMELSSLRSEDTAVYYCARGSTVTNYRPFDYWGQGTLVTVSS
chain 2: DIQMTQSPSSLSASVGDRVTITCRASQDISNYLAWYQQKPGKVPKLLIFAASTLQSGVPSRFGGSGSGTDFTLTISSLQPEDVATYYCQNYNSGPPPFGPGTKVDIK
[1]
  EC50: 0.002 nM
